Paper PMC10233381

Target: Myc-PUM1-R1147W (human) (UniProt Q14671)
Assay: co-IP; HEK293T co-transfected with Myc-PUM1 (WT or mutant) and a GST-tagged protein (250 ng each), 48 h; IP with anti-Myc, immunoblot with anti-GST; quantified against Myc-PUM1-WT; called in vitro by the paper

Sequence of UniProt Q14671 (Q14671 other isoform, or with tags, fused parts or gaps R1147W): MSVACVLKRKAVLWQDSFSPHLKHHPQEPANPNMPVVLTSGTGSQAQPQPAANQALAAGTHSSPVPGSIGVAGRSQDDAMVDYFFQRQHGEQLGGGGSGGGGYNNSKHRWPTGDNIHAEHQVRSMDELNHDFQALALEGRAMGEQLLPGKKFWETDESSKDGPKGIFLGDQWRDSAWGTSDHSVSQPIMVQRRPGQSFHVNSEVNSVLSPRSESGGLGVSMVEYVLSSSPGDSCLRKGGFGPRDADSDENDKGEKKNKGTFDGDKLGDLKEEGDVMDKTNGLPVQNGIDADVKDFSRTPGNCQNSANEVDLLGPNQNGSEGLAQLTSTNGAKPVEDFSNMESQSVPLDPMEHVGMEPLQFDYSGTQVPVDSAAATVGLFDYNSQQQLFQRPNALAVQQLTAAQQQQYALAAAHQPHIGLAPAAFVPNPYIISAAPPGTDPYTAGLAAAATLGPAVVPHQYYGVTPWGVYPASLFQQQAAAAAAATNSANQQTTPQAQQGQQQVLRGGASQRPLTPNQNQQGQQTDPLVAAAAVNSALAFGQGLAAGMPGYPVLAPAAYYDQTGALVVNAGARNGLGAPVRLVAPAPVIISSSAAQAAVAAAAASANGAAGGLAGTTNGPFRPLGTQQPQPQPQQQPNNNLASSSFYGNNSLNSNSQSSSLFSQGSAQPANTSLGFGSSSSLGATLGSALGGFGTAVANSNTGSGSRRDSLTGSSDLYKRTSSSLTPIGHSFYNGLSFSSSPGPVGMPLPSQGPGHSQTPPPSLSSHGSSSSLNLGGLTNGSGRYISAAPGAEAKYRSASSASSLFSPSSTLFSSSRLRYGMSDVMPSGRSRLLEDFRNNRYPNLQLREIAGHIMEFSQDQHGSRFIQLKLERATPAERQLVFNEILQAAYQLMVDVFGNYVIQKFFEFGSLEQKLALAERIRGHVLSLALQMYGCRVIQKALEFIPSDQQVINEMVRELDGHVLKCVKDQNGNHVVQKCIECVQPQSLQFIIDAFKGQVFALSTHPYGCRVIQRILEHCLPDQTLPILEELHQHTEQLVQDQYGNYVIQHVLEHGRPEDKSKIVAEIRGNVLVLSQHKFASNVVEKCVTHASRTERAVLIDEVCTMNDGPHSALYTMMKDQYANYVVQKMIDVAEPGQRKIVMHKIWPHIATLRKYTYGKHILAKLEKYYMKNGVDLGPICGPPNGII

“GST-CNOT1 (from UniProt A5YKK6 1-2376) (natural protein)” was tested, and the percent by which the interaction was diminished was 35%.
